Assay results published in the array DNA melting data of Ke et al..

What was measured:
[1] = melting temperature; UV melt of duplexes
[2] = melting temperature; melt of duplexes; details: sodium 0.0675 M; strand 1 µM

| Substance | Tm ([1]; sodium 0.07 M, strand 2 µM) [°C] | Tm ([1]; sodium 0.12 M, strand 2 µM) [°C] | Tm ([1]; sodium 0.22 M, strand 2 µM) [°C] | Tm ([1]; sodium 0.62 M, strand 2 µM) [°C] | Tm ([1]; sodium 1.02 M, strand 2 µM) [°C] | Tm [2] [°C] | also measured |
| --- | --- | --- | --- | --- | --- | --- | --- |
| CCATCATTGTGTCTACCTCA+TGAGGTAGACACAATGATGG ((((((((((((((((((((+)))))))))))))))))))) | 55.6 | 59.5 | 63.1 | 67.3 | 68.5 |  |  |
| AGCAGTCCGCCACACCCTGA+TCAGGGTGTGGCGGACTGCT ((((((((((((((((((((+)))))))))))))))))))) | 66.5 | 69.9 | 74 | 76.9 | 78.5 |  |  |
| AAAGGTGTCGCGGAGAGTCGTGCTG+CAGCACGACTCTCCGCGACACCTTT (((((((((((((((((((((((((+))))))))))))))))))))))))) | 69.6 | 73.6 | 77.4 | 81.2 | 82.4 |  |  |
| AATATATATGAATTCTAATTATAA+TTATAATTAGAATTCATATATATT ((((((((((((((((((((((((+)))))))))))))))))))))))) |  |  |  |  |  |  | Tm ([1]; sodium 0.12 M, strand 4.4 µM): 46.2 °C |
| ATAAATTAGGATCCATATAAAT+ATTTATATGGATCCTAATTTAT ((((((((((((((((((((((+)))))))))))))))))))))) |  |  |  |  |  |  | Tm ([1]; sodium 0.12 M, strand 5.8 µM): 47.7 °C |
| TTCCAAAAGGAGTTATGAGTTGCGA+TCGCAACTCATAACTCCTTTTGGAA (((((((((((((((((((((((((+))))))))))))))))))))))))) | 59.1 | 63 | 67.2 | 71.6 | 73.8 |  |  |
| AGCTGCAGTGGATGTGAGAA+TTCTCACATCCACTGCAGCT ((((((((((((((((((((+)))))))))))))))))))) | 59.7 | 63.5 | 67.6 | 71.3 | 73.1 |  |  |
| TCAGTAGGCGTGACGCAGAGCTGGCGATGG+CCATCGCCAGCTCTGCGTCACGCCTACTGA ((((((((((((((((((((((((((((((+)))))))))))))))))))))))))))))) | 72.2 | 75.7 | 79.3 | 83.3 | 84.6 |  |  |
| CTTAAGATATGAGAACTTCAACTAATGTGT+ACACATTAGTTGAAGTTCTCATATCTTAAG ((((((((((((((((((((((((((((((+)))))))))))))))))))))))))))))) | 56.8 | 61.3 | 64.9 | 70.5 | 71.8 |  |  |
| AAGCTATATATATCGAT+ATCGATATATATAGCTT (((((((((((((((((+))))))))))))))))) |  |  |  |  |  |  | Tm ([1]; sodium 0.12 M, strand 5 µM): 50.2 °C |
| GTCATACGACTGAGTGCAACATTGTTCAAA+TTTGAACAATGTTGCACTCAGTCGTATGAC ((((((((((((((((((((((((((((((+)))))))))))))))))))))))))))))) | 62.7 | 66.8 | 70.8 | 75.9 | 76.9 |  |  |
| TAGTATATCGCAGCATCATACAGGC+GCCTGTATGATGCTGCGATATACTA (((((((((((((((((((((((((+))))))))))))))))))))))))) | 61.2 | 64.7 | 69.1 | 72.8 | 75 |  |  |
| TACTTCCAGTGCTCAGCGTA+TACGCTGAGCACTGGAAGTA ((((((((((((((((((((+)))))))))))))))))))) | 60.3 | 64.4 | 67.7 | 71.6 | 73.6 |  |  |
| AAATATAAGAATTCTTATATTT+AAATATAAGAATTCTTATATTT ((((((((((((((((((((((+)))))))))))))))))))))) |  |  |  |  |  |  | Tm ([1]; sodium 0.12 M, strand 7 µM): 48.9 °C |
| CGGAATCCATGTTACTTCGGCTATC+GATAGCCGAAGTAACATGGATTCCG (((((((((((((((((((((((((+))))))))))))))))))))))))) | 60.9 | 64.7 | 68.7 | 73.3 | 74.8 |  |  |
| GCGGGCGAGGATCCAGCGCGCG+CGCGCGCTGGATCCTCGCCCGC ((((((((((((((((((((((+)))))))))))))))))))))) |  |  |  |  |  |  | Tm ([1]; sodium 0.12 M, strand 5.3 µM): 77.2 °C |
| AAATAAATAGCTATTTATTT+AAATAAATAGCTATTTATTT ((((((((((((((((((((+)))))))))))))))))))) |  |  |  |  |  |  | Tm ([1]; sodium 0.12 M, strand 7 µM): 47.1 °C |
| AACGCGTGAATTCTGGCCAA+TTGGCCAGAATTCACGCGTT ((((((((((((((((((((+)))))))))))))))))))) |  |  |  |  |  |  | Tm ([1]; sodium 0.12 M, strand 6 µM): 66.6 °C |
| GTGGTGGGCCGTGCGCTCTG+CAGAGCGCACGGCCCACCAC ((((((((((((((((((((+)))))))))))))))))))) | 69.2 | 72.7 | 76.2 | 79.6 | 81 |  |  |
| AATATATATAGAGTAATTATAA+TTATAATTACTCTATATATATT ((((((((((((((((((((((+)))))))))))))))))))))) |  |  |  |  |  |  | Tm ([1]; sodium 0.12 M, strand 5 µM): 45.1 °C |
| AACGCGCGTAGAGTGGCCGCAA+TTGCGGCCACTCTACGCGCGTT ((((((((((((((((((((((+)))))))))))))))))))))) |  |  |  |  |  |  | Tm ([1]; sodium 0.12 M, strand 6 µM): 77.3 °C |
| GTTCACGTCCGAAAGCTCGAAAAAGGATAC+GTATCCTTTTTCGAGCTTTCGGACGTGAAC ((((((((((((((((((((((((((((((+)))))))))))))))))))))))))))))) | 64.3 | 68.2 | 72.1 | 77.1 | 78.7 |  |  |
| GCCCCTCCACTGGCCGACGGCAGCAGGCTC+GAGCCTGCTGCCGTCGGCCAGTGGAGGGGC ((((((((((((((((((((((((((((((+)))))))))))))))))))))))))))))) | 76.3 | 79.8 | 83.6 | 87.1 | 87.7 |  |  |
| TCCACACGGTAGTAAAATTAGGCTT+AAGCCTAATTTTACTACCGTGTGGA (((((((((((((((((((((((((+))))))))))))))))))))))))) | 59.3 | 63.1 | 67.3 | 71.8 | 73.8 |  |  |
| CAGCCTCGTTCGCACAGCCC+GGGCTGTGCGAACGAGGCTG ((((((((((((((((((((+)))))))))))))))))))) | 67.2 | 70.7 | 74 | 77.7 | 78.1 |  |  |
| CCCTGCACTTTAACTGAATTGTTTA+TAAACAATTCAGTTAAAGTGCAGGG (((((((((((((((((((((((((+))))))))))))))))))))))))) | 57.4 | 61.4 | 65.6 | 70.1 | 72.5 |  |  |

| Substance | Tm ([1]; sodium 0.07 M, strand 2 µM) [°C] | Tm ([1]; sodium 0.12 M, strand 2 µM) [°C] | Tm ([1]; sodium 0.22 M, strand 2 µM) [°C] | Tm ([1]; sodium 0.62 M, strand 2 µM) [°C] | Tm ([1]; sodium 1.02 M, strand 2 µM) [°C] | Tm [2] [°C] | also measured |
| --- | --- | --- | --- | --- | --- | --- | --- |
| CAGTGAGACAGCAATGGTCG+CGACCATTGCTGTCTCACTG ((((((((((((((((((((+)))))))))))))))))))) | 59.8 | 63.5 | 67 | 71.1 | 72.5 |  |  |
| AATATATATAGAGTGGCCGCAA+TTGCGGCCACTCTATATATATT ((((((((((((((((((((((+)))))))))))))))))))))) |  |  |  |  |  |  | Tm ([1]; sodium 0.12 M, strand 6 µM): 65.2 °C |
| AACGCCGGTAGAGTGCGCGCAA+TTGCGCGCACTCTACCGGCGTT ((((((((((((((((((((((+)))))))))))))))))))))) |  |  |  |  |  |  | Tm ([1]; sodium 0.12 M, strand 5.9 µM): 79.1 °C |
| AAATATAGCTATATTT+AAATATAGCTATATTT ((((((((((((((((+)))))))))))))))) |  |  |  |  |  |  | Tm ([1]; sodium 0.12 M, strand 5 µM): 40.4 °C |
| CGACGTGCGCGATGTGCTG+CAGCACATATAGCACGTCG ((((((((...((((((((+))))))))...)))))))) |  |  |  |  |  | 51.8 |  |
| CGACGTGCGTGATGTGCTG+CAGCACATCCAGCACGTCG ((((((((..(((((((((+)))))))))..)))))))) |  |  |  |  |  | 55.5 |  |
| CGACGTGCCATATGTGCTG+CAGCACATACTGCACGTCG ((((((((..(((((((((+)))))))))..)))))))) |  |  |  |  |  | 49.3 |  |
| CGACGTGCGGAATGTGCTG+CAGCACATCCTGCACGTCG ((((((((.(.((((((((+)))))))).).)))))))) |  |  |  |  |  | 55.2 |  |
| CGACGTGCCCGATGTGCTG+CAGCACATGCCGCACGTCG ((((((((...((((((((+))))))))...)))))))) |  |  |  |  |  | 48.1 |  |
| CGACGTGCCCGATGTGCTG+CAGCACATCTGGCACGTCG (((((((((.(((((((((+))))))))).))))))))) |  |  |  |  |  | 59.1 |  |
| CGACGTGCAAAATGTGCTG+CAGCACATTTTGCACGTCG (((((((((((((((((((+))))))))))))))))))) |  |  |  |  |  | 62.4 |  |
| CGACGTGCTTAATGTGCTG+CAGCACATTGAGCACGTCG (((((((((.(((((((((+))))))))).))))))))) |  |  |  |  |  | 56.9 |  |
| CGACGTGCGCTATGTGCTG+CAGCACATTCCGCACGTCG (((((((((..((((((((+))))))))..))))))))) |  |  |  |  |  | 52.1 |  |
| CGACGTGCAGGATGTGCTG+CAGCACATCCAGCACGTCG ((((((((.((((((((((+)))))))))).)))))))) |  |  |  |  |  | 59.8 |  |
| CGACGTGCTTAATGTGCTG+CAGCACATAAAGCACGTCG ((((((((((.((((((((+)))))))).)))))))))) |  |  |  |  |  | 56.2 |  |
| CGACGTGCTTAATGTGCTG+CAGCACATTACGCACGTCG ((((((((.((((((((((+)))))))))).)))))))) |  |  |  |  |  | 54.8 |  |
| CGACGTGCGCAATGTGCTG+CAGCACATCTAGCACGTCG ((((((((...((((((((+))))))))...)))))))) |  |  |  |  |  | 51.8 |  |
| CGACGTGCCGTATGTGCTG+CAGCACATTCGGCACGTCG ((((((((((.((((((((+)))))))).)))))))))) |  |  |  |  |  | 59.9 |  |
| CGACGTGCGCGATGTGCTG+CAGCACATTGCGCACGTCG ((((((((((.((((((((+)))))))).)))))))))) |  |  |  |  |  | 63.5 |  |
| CGACGTGCGCGATGTGCTG+CAGCACATGTTGCACGTCG ((((((((...((((((((+))))))))...)))))))) |  |  |  |  |  | 50.5 |  |
| CGACGTGCAAGATGTGCTG+CAGCACATTGTGCACGTCG (((((((((..((((((((+))))))))..))))))))) |  |  |  |  |  | 50.6 |  |
| CGACGTGCTATATGTGCTG+CAGCACATGGCGCACGTCG ((((((((...((((((((+))))))))...)))))))) |  |  |  |  |  | 48.5 |  |
| CGACGTGCCCAATGTGCTG+CAGCACATTGTGCACGTCG ((((((((.((((((((((+)))))))))).)))))))) |  |  |  |  |  | 54.7 |  |
| CGACGTGCCCCATGTGCTG+CAGCACATCACGCACGTCG ((((((((...((((((((+))))))))...)))))))) |  |  |  |  |  | 45.7 |  |
| CGACGTGCAGGATGTGCTG+CAGCACATCACGCACGTCG ((((((((..(((((((((+)))))))))..)))))))) |  |  |  |  |  | 55.9 |  |
